Experimental data from paper PMC4022735, “Structural and Biochemical Characterization Reveals LysGH15 as an Unprecedented “EF-Hand-Like” Calcium-Binding Phage Lysin” (PLoS Pathogens, 2014).

Molecular target: T1, LysGH15 SH3b domain (residues 368–495) (staphylococcal phage GH15, 15N (and/or 13C) labelled for NMR; N-terminal SNA tag remnant omitted (PDB 2MK5 entity residues 4-131 = 368-495))
T1 chain: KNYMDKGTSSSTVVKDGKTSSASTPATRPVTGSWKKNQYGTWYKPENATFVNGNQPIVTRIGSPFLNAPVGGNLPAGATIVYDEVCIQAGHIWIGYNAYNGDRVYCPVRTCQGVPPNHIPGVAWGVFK
Test: NMR titration; 1H-15N HSQC spectra of 15N-labelled SH3b on addition of the peptide (100 mM stock in the buffer of the SH3b sample); 298 K; KD from a fit of the chemical shift perturbations; fast exchange
Details: both partners purified

B1: peptide “AGGGGG” (peptide)
peptide: AGGGGG
notes: synthetic peptide used as previously reported for the SH3b domain of ALE-1; Not a stretch of a named natural protein; also called the peptide; source: synthetic peptide (Sangon Biotech (Shanghai) Co., Ltd.)
Kd: ~3 mM
